Measurements as given in the array DNA melting data of Ke et al..

Test: melting temperature; melt of duplexes
Conditions: sodium 0.0675 M; strand 1 µM

Row | Substance | Tm [°C]
1 | CGACGTGCTACATGTGCTG+CAGCACATACAGCACGTCG (((((((((..((((((((+))))))))..))))))))) | 51.5
2 | CGACGTGCCTCATGTGCTG+CAGCACATGCGGCACGTCG (((((((((.(((((((((+))))))))).))))))))) | 58.3
3 | CGACGTGCACAATGTGCTG+CAGCACATTAGGCACGTCG ((((((((..(((((((((+)))))))))..)))))))) | 50.6
4 | CGACGTGCGTTATGTGCTG+CAGCACATCGAGCACGTCG ((((((((...((((((((+))))))))...)))))))) | 52.2
5 | CGACGTGCAGCATGTGCTG+CAGCACATAGTGCACGTCG (((((((((..((((((((+))))))))..))))))))) | 44.4
6 | CGACGTGCATCATGTGCTG+CAGCACATTGAGCACGTCG ((((((((...((((((((+))))))))...)))))))) | 50.2
7 | CGACGTGCCCAATGTGCTG+CAGCACATCTTGCACGTCG ((((((((...((((((((+))))))))...)))))))) | 48.1
8 | CGACGTGCCCAATGTGCTG+CAGCACATGTCGCACGTCG ((((((((...((((((((+))))))))...)))))))) | 49.5
9 | CGACGTGCCGGATGTGCTG+CAGCACATTGAGCACGTCG ((((((((...((((((((+))))))))...)))))))) | 50.8
10 | CGACGTGCTGCATGTGCTG+CAGCACATTCTGCACGTCG ((((((((.(.((((((((+)))))))).).)))))))) | 51.8
11 | CGACGTGCCTGATGTGCTG+CAGCACATACTGCACGTCG ((((((((...((((((((+))))))))...)))))))) | 48.4
12 | CGACGTGCGGGATGTGCTG+CAGCACATTAAGCACGTCG ((((((((...((((((((+))))))))...)))))))) | 53.9
13 | CGACGTGCGGCATGTGCTG+CAGCACATACTGCACGTCG ((((((((.(.((((((((+)))))))).).)))))))) | 54.2
14 | CGACGTGCCAAATGTGCTG+CAGCACATCATGCACGTCG ((((((((...((((((((+))))))))...)))))))) | 48.3
15 | CGACGTGCGCGATGTGCTG+CAGCACATCCAGCACGTCG ((((((((..(((((((((+)))))))))..)))))))) | 55.6
16 | CGACGTGCCTGATGTGCTG+CAGCACATCTTGCACGTCG ((((((((..(((((((((+)))))))))..)))))))) | 53.7
17 | CGACGTGCGCCATGTGCTG+CAGCACATGTGGCACGTCG ((((((((..(((((((((+)))))))))..)))))))) | 54.1
18 | CGACGTGCCAGATGTGCTG+CAGCACATTCCGCACGTCG ((((((((...((((((((+))))))))...)))))))) | 49.6
19 | CGACGTGCCTTATGTGCTG+CAGCACATACGGCACGTCG (((((((((.(((((((((+))))))))).))))))))) | 56.1
20 | CGACGTGCCGGATGTGCTG+CAGCACATAATGCACGTCG ((((((((...((((((((+))))))))...)))))))) | 48.6
21 | CGACGTGCGCGATGTGCTG+CAGCACATTTAGCACGTCG ((((((((...((((((((+))))))))...)))))))) | 52.2
22 | CGACGTGCACGATGTGCTG+CAGCACATCAAGCACGTCG ((((((((..(((((((((+)))))))))..)))))))) | 51.2
23 | CGACGTGCATGATGTGCTG+CAGCACATACCGCACGTCG ((((((((...((((((((+))))))))...)))))))) | 47.5
24 | CGACGTGCTCCATGTGCTG+CAGCACATAATGCACGTCG ((((((((...((((((((+))))))))...)))))))) | 48.4

Row | Substance | Tm [°C]
25 | CGACGTGCTGAATGTGCTG+CAGCACATAGCGCACGTCG ((((((((...((((((((+))))))))...)))))))) | 48.3
26 | CGACGTGCACAATGTGCTG+CAGCACATAGTGCACGTCG ((((((((((.((((((((+)))))))).)))))))))) | 53.5
27 | CGACGTGCGCGATGTGCTG+CAGCACATTGAGCACGTCG ((((((((.(.((((((((+)))))))).).)))))))) | 56.8
28 | CGACGTGCTCCATGTGCTG+CAGCACATTCTGCACGTCG ((((((((...((((((((+))))))))...)))))))) | 47.2
29 | CGACGTGCGTAATGTGCTG+CAGCACATTGCGCACGTCG (((((((((.(((((((((+))))))))).))))))))) | 60.3
30 | CGACGTGCATCATGTGCTG+CAGCACATACGGCACGTCG ((((((((...((((((((+))))))))...)))))))) | 46.3
31 | CGACGTGCCCCATGTGCTG+CAGCACATCCCGCACGTCG ((((((((...((((((((+))))))))...)))))))) | 46.2
32 | CGACGTGCCCTATGTGCTG+CAGCACATGACGCACGTCG ((((((((...((((((((+))))))))...)))))))) | 44
33 | CGACGTGCCATATGTGCTG+CAGCACATCTGGCACGTCG ((((((((((.((((((((+)))))))).)))))))))) | 57.1
34 | CGACGTGCCACATGTGCTG+CAGCACATGGCGCACGTCG ((((((((..(((((((((+)))))))))..)))))))) | 54
35 | CGACGTGCCAAATGTGCTG+CAGCACATAAGGCACGTCG (((((((((..((((((((+))))))))..))))))))) | 54.4
36 | CGACGTGCATCATGTGCTG+CAGCACATTTCGCACGTCG ((((((((...((((((((+))))))))...)))))))) | 46.9
37 | CGACGTGCGGTATGTGCTG+CAGCACATACGGCACGTCG ((((((((.((((((((((+)))))))))).)))))))) | 58.5
38 | CGACGTGCTCTATGTGCTG+CAGCACATGCTGCACGTCG ((((((((...((((((((+))))))))...)))))))) | 47
39 | CGACGTGCCGTATGTGCTG+CAGCACATCTAGCACGTCG ((((((((...((((((((+))))))))...)))))))) | 49.1
40 | CGACGTGCTGAATGTGCTG+CAGCACATGGCGCACGTCG ((((((((...((((((((+))))))))...)))))))) | 52.3
41 | CGACGTGCGTGATGTGCTG+CAGCACATCCTGCACGTCG ((((((((..(((((((((+)))))))))..)))))))) | 55.6
42 | CGACGTGCGTCATGTGCTG+CAGCACATAATGCACGTCG ((((((((.(.((((((((+)))))))).).)))))))) | 52.2
43 | CGACGTGCAACATGTGCTG+CAGCACATTGCGCACGTCG ((((((((...((((((((+))))))))...)))))))) | 48.8
44 | CGACGTGCTAAATGTGCTG+CAGCACATTGAGCACGTCG (((((((((.(((((((((+))))))))).))))))))) | 57.2
45 | CGACGTGCCATATGTGCTG+CAGCACATATAGCACGTCG ((((((((.((((((((((+)))))))))).)))))))) | 53.2
46 | CGACGTGCTCGATGTGCTG+CAGCACATCCGGCACGTCG ((((((((..(((((((((+)))))))))..)))))))) | 53.7
47 | CGACGTGCATAATGTGCTG+CAGCACATCCCGCACGTCG ((((((((...((((((((+))))))))...)))))))) | 46.9
48 | CGACGTGCCCAATGTGCTG+CAGCACATGAGGCACGTCG (((((((((..((((((((+))))))))..))))))))) | 56.1

Row | Substance | Tm [°C]
49 | CGACGTGCTCCATGTGCTG+CAGCACATACCGCACGTCG ((((((((...((((((((+))))))))...)))))))) | 46.3
50 | CGACGTGCTGAATGTGCTG+CAGCACATGCGGCACGTCG ((((((((.(.((((((((+)))))))).).)))))))) | 55.3
51 | CGACGTGCTTCATGTGCTG+CAGCACATTATGCACGTCG ((((((((.(.((((((((+)))))))).).)))))))) | 50.1
52 | CGACGTGCGCGATGTGCTG+CAGCACATCAAGCACGTCG ((((((((..(((((((((+)))))))))..)))))))) | 59
53 | CGACGTGCGGCATGTGCTG+CAGCACATCCTGCACGTCG ((((((((.(.((((((((+)))))))).).)))))))) | 53.4
54 | CGACGTGCTCGATGTGCTG+CAGCACATGACGCACGTCG ((((((((...((((((((+))))))))...)))))))) | 47.4
55 | CGACGTGCATAATGTGCTG+CAGCACATCATGCACGTCG ((((((((((.((((((((+)))))))).)))))))))) | 54
56 | CGACGTGCTTGATGTGCTG+CAGCACATGATGCACGTCG ((((((((.(.((((((((+)))))))).).)))))))) | 51.6
57 | CGACGTGCCTCATGTGCTG+CAGCACATGCCGCACGTCG ((((((((..(((((((((+)))))))))..)))))))) | 51.4
58 | CGACGTGCGTGATGTGCTG+CAGCACATCTGGCACGTCG ((((((((..(((((((((+)))))))))..)))))))) | 55.7
59 | CGACGTGCGACATGTGCTG+CAGCACATCGTGCACGTCG ((((((((...((((((((+))))))))...)))))))) | 47.6
60 | CGACGTGCGGGATGTGCTG+CAGCACATCGGGCACGTCG ((((((((..(((((((((+)))))))))..)))))))) | 56.1
61 | CGACGTGCGGCATGTGCTG+CAGCACATAATGCACGTCG ((((((((...((((((((+))))))))...)))))))) | 51.1
62 | CGACGTGCCACATGTGCTG+CAGCACATCACGCACGTCG ((((((((...((((((((+))))))))...)))))))) | 46.2
63 | CGACGTGCGTGATGTGCTG+CAGCACATCGAGCACGTCG ((((((((..(((((((((+)))))))))..)))))))) | 58.6
64 | CGACGTGCAGAATGTGCTG+CAGCACATTTGGCACGTCG ((((((((..(((((((((+)))))))))..)))))))) | 54.3
65 | CGACGTGCCTCATGTGCTG+CAGCACATCAAGCACGTCG ((((((((.(.((((((((+)))))))).).)))))))) | 47.9
66 | CGACGTGCGCTATGTGCTG+CAGCACATACAGCACGTCG ((((((((..(((((((((+)))))))))..)))))))) | 52.1
67 | CGACGTGCTATATGTGCTG+CAGCACATTGGGCACGTCG ((((((((...((((((((+))))))))...)))))))) | 50.5
68 | CGACGTGCCATATGTGCTG+CAGCACATTGGGCACGTCG (((((((((..((((((((+))))))))..))))))))) | 55.6
69 | CGACGTGCAGCATGTGCTG+CAGCACATGATGCACGTCG (((((((((.(((((((((+))))))))).))))))))) | 61.3
70 | CGACGTGCTGGATGTGCTG+CAGCACATACTGCACGTCG ((((((((.(.((((((((+)))))))).).)))))))) | 56.3
71 | CGACGTGCGGAATGTGCTG+CAGCACATACGGCACGTCG ((((((((.(.((((((((+)))))))).).)))))))) | 53.3
72 | CGACGTGCTAGATGTGCTG+CAGCACATACGGCACGTCG ((((((((...((((((((+))))))))...)))))))) | 49.9
